No end group written: not given here. *: point of attachment. GlcN = OC[C@H]1OC(O)[C@H](N*)[C@@H](O)[C@@H]1O; Acetyl(2-naphthyl) = O=C(Cc1ccc2ccccc2c1)*
Key:
[1] = TEM of hydrogel and solutions; type: physicochemical; conditions: solution at 16.6 mM
[2] = tested on: hydrogel of P-1; test: Gel-sol transition and rheology; type: physicochemical; conditions: 7 days
[3] = target: proteinase K (Parengyodontium album, UniProt P06873); type: in vitro ADME; conditions: 37 °C, 24 h
[4] = target: T1, P-1 (Nap-FF-LGFNI, heptapeptide derivative); test: ITC
T1 sequence (peptide, 2-(naphthalen-2-yl)acetic group (Nap) on the N-terminus): FFLGFNI

[5] = target: the molecule itself; test: hydrogelation + TEM

Chain of proteinase K (P06873 106-384): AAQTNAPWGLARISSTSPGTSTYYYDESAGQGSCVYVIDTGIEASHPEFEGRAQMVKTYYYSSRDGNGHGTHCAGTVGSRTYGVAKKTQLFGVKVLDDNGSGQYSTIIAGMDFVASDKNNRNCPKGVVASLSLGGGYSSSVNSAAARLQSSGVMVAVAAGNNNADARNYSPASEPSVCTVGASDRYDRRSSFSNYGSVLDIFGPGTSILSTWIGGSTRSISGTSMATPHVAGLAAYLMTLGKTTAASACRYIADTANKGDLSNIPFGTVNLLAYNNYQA

Row | Molecule | Kd [4] [µM] | dH [4] [kcal/mol] | stoichiometry N [4] | further results
1 | GP-2: Glycoconjugate of nucleobase, peptide, saccharide: thymine at N-terminal and glucosamine at C-terminal of TTPV (thymine-TTPV-GlcN) | – | – | – | nanostructures in TEM images of the solution [1]: hardly any ordered nanostructures; G' times smaller than that of hydrogel of P-1 ([2]; 4 equiv of compound): about 300 times; Max G' of P-1 after addition of 4 equiv of compound ([2]; hydrogel of P-1 622 μM, pH 6.4, 300 μL + 50 μL 15 mM compound (4:1)): 0.06 Pa; Hydrogelator P-1 remaining in mixture with 1 equiv of compound ([3]; hydrogel of P-1 + compound 1:1, proteinase K 3.2 U/mL): 45.0 ± 0.4%; Hydrogelator P-1 remaining in mixture with 4 equiv of compound ([3]; hydrogel of P-1 + compound 4:1, proteinase K 3.2 U/mL): 24.2 ± 2.0%
2 | thymine-TTPV-GlcN [GP-2 (thymine-TTPV-glucosamine, conjugate of nucleobase, peptide and saccharide)] | 262 | -4.11 | 1.04 | –
3 | {Acetyl(2-naphthyl)}-FFLGFNI [P-1 (Nap-FF-LGFNI, heptapeptide derivative)] | – | – | – | binding result [5]: binds
4 | thymine-TTPV [P-3 (thymine-TTPV, non-glycosylated control of GP-2)] | 235 | -3.13 | 1.38 | –
